For the experiment, the target named is FLAG epitope tagged DLK-1 K162R (FLAG::DLK-1L K162R) (C. elegans). The experiment can be described thus: co-IP; FLAG::DLK-1 K162R immunoprecipitated from 5 mg of transgenic whole worm lysate (0.1% NP-40 lysis buffer); wild-type or mutant PPM-2::GFP detected by anti-GFP immunoblot; bands quantified with Image J as ratio of PPM-2::GFP in coIP to FLAG::DLK-1 K162R immunoprecipitated. In general terms: In western blotting, separated proteins are transferred to a membrane and probed.

Numbering of substitutions follows the chain as printed. Numbers in names are those of the source.

B1: PPM-2::GFP R185A (phosphatase trapping mutant of PPM-2) (enzyme)
chain: MGQTLSEPVTKKESASCANENYLVGSSCMQGWRVDMEDAHTHLLSLPDDPKCAFFAVYDGHGGSKVSQYSGINLHKKVVAQKEFSEGNMKEAIEKGFLELDQQMRVDEETKDDVSGTTAVVVLIKEGDVYCGNAGDSRAVSSVVGEARPLSFDHKPSHETEARRIIAAGGWVEFNRVNGNLALSAALGDFAFKNCDTKPAEEQIVTAFPDVITDKLTPDHEFIVLACDGIWDVMTNQEVVDFVREKLAEKRDPQSICEELLTRCLAPDCQMGGLGCDNMTVVLVGLLHGQSPDTLFTKCARPAVFTGVNNEDGDQNQIQQDISRVINNFDGEQRVNAANQEEEEDDNEPAPANFQV
Turning to B1, the ratio of PPM-2::GFP in coIP to FLAG::DLK-1 K162R immunoprecipitated was found to be 1.5.

B2: PPM-2::GFP (GFP fusion protein of wild-type PPM-2) (enzyme)
chain: B1 chain with A185R
In the case of B2, the ratio of PPM-2::GFP in coIP to FLAG::DLK-1 K162R immunoprecipitated stood at 0.4.
